Data on 2 substances can be found in publication PMC3749969.

Test [1] deals with Merkel cell polyomavirus major capsid protein VP1 (native virions, isolate R17b) (Merkel cell polyomavirus (MCV), isolate R17b). The test is described as follows: co-sedimentation; purified native virions and high-VP2 pseudovirions; SDS-PAGE, SYPRO Ruby stain, densitometry against BSA standards; apparent ratio.
The target in test [2] is Merkel cell polyomavirus major capsid protein VP1 (pseudovirions, codon-modified gene) (Merkel cell polyomavirus (MCV)). The test is described as above.

Regarding “Merkel cell polyomavirus minor capsid protein VP2 (native virions, isolate R17b) (natural protein)”, the stoichiometry N (VP2 per 5 VP1) in test [1] worked out at 2.
On to “Merkel cell polyomavirus minor capsid protein VP2 (pseudovirions, codon-modified gene) (natural protein)”, for which the stoichiometry N (VP2 per 5 VP1) in test [2] came to 1.4.
